This note sets out measurements from article PMC9381713, “Structural features of Dnase1L3 responsible for serum antigen clearance”.

The Kd is the equilibrium constant for the complex coming apart.

In one series the test system is Dnase1. The experiment in a line: fluorescence polarization. As to conditions: FP: 50 mM Hepes pH 7.5 (Results say pH 7.4), 100 mM NaCl, 0.1 mM EDTA (1 mM for Dnase1L3/Dnase1), 1% glycerol, 1 mM TCEP, 0.1% PEG 6000, 20 nM dsDNA, 30 min at ….
Series [1] deals with T1, Dnase1L3 CTD peptide (cleaved from SH3-CTD) (human, UniProt Q13609).
T1 chain: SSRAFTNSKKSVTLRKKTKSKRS
In words: fluorescence polarization; 100 mM NaCl, 0.1 mM EDTA; FP: 50 mM Hepes pH 7.5 (Results say pH 7.4), 100 mM NaCl, 0.1 mM EDTA (1 mM for Dnase1L3/Dnase1), 1% glycerol, 1 mM TCEP, 0.1% PEG 6000, 20 nM dsDNA, 30 min at. The settings on record: protein: recombinant; tags: TEV-cleaved from His-SH3 fusion; label: 5'-FAM on strand 1; blunt.

A further series has as its target T2, Dnase1L3 WT (human, UniProt Q13609 21-305).
T2 sequence: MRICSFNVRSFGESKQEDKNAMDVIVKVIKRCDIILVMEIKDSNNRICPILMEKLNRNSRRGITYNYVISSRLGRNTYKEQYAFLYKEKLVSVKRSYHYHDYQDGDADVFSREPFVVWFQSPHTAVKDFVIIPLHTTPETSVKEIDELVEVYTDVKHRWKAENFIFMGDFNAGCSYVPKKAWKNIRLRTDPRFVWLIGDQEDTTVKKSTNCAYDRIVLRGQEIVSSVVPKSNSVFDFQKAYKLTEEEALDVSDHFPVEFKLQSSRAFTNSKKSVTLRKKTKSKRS
In words: fluorescence polarization; 1 mM EDTA; FP: 50 mM Hepes pH 7.5 (Results say pH 7.4), 100 mM NaCl, 0.1 mM EDTA (1 mM for Dnase1L3/Dnase1), 1% glycerol, 1 mM TCEP, 0.1% PEG 6000, 20 nM dsDNA, 30 min at. The settings on record: protein: recombinant; tags: His-MBP removed by TEV; blunt.

For a further series, the target named is T3, Dnase1L3 R132A (human, UniProt Q13609 21-305, R132A).
T3 sequence: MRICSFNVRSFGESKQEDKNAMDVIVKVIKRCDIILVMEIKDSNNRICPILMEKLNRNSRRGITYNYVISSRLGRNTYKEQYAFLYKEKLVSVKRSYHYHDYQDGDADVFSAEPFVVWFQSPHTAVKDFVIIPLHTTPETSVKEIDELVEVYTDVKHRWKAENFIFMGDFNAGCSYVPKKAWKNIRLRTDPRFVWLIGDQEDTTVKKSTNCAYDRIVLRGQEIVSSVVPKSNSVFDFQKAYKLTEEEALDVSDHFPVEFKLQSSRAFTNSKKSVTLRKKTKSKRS
The description is as above. As to conditions: protein: recombinant; blunt.

Regarding “GTGTTCGGACTCTGCCTCAAGACGGTAGTCAACGTGCTTG (double strand) [FITC 40-mer dsDNA]”, the Kd with Dnase1 came out at 2.9 µM.

B1: FAM 40-mer dsDNA (dsDNA)
DNA 1: GTGTTCGGACTCTGCCTCAAGACGGTAGTCAACGTGCTTG
DNA 2: CAAGCACGTTGACTACCGTCTTGAGGCAGAGTCCGAACAC
As to B1, the Kd in series [1] was found to be 4.9 µM.

B2: FITC 40-mer dsDNA (dsDNA)
DNA 1: GTGTTCGGACTCTGCCTCAAGACGGTAGTCAACGTGCTTG
DNA 2: CAAGCACGTTGACTACCGTCTTGAGGCAGAGTCCGAACAC
Take B2: the Kd with Dnase1L3 WT is 0.99 ± 0.33 µM; with Dnase1L3 R132A, 4.95 µM.
